Reference: patent EP4471063A1 (Medilink Therapeutics (Suzhou) Co., Ltd., dated 2023)
Residue numbers refer to the chain shown, from its start.

T1: rat Her3-his (rat)
T1 chain: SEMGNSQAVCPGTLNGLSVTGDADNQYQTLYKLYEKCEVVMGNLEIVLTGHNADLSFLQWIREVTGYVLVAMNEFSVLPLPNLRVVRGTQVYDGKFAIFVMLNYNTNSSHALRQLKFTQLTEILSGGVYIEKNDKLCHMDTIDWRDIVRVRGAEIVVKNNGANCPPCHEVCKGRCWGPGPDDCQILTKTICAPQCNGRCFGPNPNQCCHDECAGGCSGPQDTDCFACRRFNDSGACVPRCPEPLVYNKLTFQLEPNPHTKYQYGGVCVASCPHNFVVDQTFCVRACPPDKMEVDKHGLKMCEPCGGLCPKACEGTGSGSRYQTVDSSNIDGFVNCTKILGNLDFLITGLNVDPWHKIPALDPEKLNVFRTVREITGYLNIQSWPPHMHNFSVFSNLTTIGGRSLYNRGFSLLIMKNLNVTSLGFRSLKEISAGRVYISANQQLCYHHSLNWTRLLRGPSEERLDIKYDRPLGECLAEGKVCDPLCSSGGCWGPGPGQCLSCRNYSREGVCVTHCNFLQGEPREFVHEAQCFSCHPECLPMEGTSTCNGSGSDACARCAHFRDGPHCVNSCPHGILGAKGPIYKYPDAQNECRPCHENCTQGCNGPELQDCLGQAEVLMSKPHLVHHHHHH

T2: human Her4-His (human, UniProt Q15303 26-649, limits assumed)
T2 construct: Bought protein
T2 sequence (looked up): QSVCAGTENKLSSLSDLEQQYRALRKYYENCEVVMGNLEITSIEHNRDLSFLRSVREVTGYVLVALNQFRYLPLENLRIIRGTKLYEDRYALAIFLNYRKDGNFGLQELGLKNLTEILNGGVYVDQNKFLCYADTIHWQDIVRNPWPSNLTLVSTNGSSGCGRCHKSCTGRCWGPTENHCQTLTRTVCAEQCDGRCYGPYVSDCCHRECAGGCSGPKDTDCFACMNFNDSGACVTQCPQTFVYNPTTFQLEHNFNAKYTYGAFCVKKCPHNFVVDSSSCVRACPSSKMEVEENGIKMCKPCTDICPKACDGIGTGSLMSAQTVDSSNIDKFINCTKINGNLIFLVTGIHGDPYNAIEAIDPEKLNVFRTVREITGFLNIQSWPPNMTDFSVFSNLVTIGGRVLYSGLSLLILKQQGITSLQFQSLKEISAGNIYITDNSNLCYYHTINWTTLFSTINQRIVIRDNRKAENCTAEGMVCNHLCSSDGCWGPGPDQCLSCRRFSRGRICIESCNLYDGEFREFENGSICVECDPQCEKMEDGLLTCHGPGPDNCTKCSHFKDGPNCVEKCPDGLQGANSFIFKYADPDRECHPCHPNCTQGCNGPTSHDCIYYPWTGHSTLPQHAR

T3: monkey Her3-his (monkey)
T3 chain: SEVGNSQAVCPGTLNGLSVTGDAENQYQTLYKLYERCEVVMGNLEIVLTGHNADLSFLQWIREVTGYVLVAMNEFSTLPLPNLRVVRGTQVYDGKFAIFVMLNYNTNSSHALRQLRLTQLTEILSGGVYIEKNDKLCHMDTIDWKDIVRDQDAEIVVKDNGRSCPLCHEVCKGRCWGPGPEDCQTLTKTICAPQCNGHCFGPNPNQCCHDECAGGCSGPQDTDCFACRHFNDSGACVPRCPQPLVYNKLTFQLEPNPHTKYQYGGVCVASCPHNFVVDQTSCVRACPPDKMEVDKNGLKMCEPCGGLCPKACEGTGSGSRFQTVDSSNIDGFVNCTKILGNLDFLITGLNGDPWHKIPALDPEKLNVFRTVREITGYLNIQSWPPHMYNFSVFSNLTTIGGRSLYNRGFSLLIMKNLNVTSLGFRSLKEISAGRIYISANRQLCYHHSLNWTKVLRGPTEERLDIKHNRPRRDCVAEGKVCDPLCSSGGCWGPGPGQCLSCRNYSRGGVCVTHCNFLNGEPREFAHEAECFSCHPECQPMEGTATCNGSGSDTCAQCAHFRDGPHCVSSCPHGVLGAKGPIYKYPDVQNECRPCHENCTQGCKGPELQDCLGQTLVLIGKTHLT

B1: antibody 202-3-1 (antibody, human IgG1, kappa, V domains shown)
VH: QVQLQESGPGLVKPSETLSLTCTVSGGSISGYFWSWIRQSPGKGLEWIGYIHYSGRTNYNPSLKSRVTISVDTSKNQFSLKLSSVTAADTAVYYCARETGGSGHWYFDLWGRGNLVTVSS
VL: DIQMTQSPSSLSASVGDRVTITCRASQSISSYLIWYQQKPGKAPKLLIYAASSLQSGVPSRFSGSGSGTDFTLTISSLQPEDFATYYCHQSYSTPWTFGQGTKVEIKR
B2: antibody 202-3-2 (antibody, human IgG1, kappa, V domains shown)
VH: B1 VH with K43Q, K81Q
VL: DIQMTQSPSSLSASVGDRVTITCRASQSISSYLIWYQQKPGQAPRLLIYAASSLQSGVPSRFSGSGSGTDFTLTISSLQPEDFATYYCHQSYSTPWTFGQGTKVEIKR
notes: IgG1/kappa
B3: antibody 202-2-1 (antibody, human IgG1, kappa, V domains shown)
VH: EVQLVESGGGVVQPGRSLRLSCAASGFTFSTYGMHWVRQAPGKGLEWVAVIWYDVSHKYYADSVKGRFTISRDNSKNTLSLQMNSLRAEDTAVYYCARDWGDPDAFDIWGQGTMVTVSS
VL: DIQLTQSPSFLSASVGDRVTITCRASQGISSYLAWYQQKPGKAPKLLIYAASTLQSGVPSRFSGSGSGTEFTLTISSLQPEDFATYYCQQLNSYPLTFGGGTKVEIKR
notes: Fully human IgG1/kappa from a phage scFv library; expressed in HEK293F; also called Her3mAb

Assays:
human Her3-his [1] = target: T4, human Her3-his (human, UniProt P21860 20-643); experiment: ELISA, coated Her3-his, antibody 40 ng/mL
T4 construct: Construct encodes positions 1-643 with its own leader; Expressed in HEK293F, purified on a Ni column; also called human Her3 protein

human Her3-his [2] = target: T4, human Her3-his; experiment: ELISA, coated Her3-his, antibody 200 ng/mL
[3] = target: T5, human Her3 on tumor cells (human, UniProt P21860 20-1342); experiment: flow cytometry, A549-human Her3 tumor cells
T5 construct: whole, on cells; also called A549-human Her3 cells; T47D cells

human EGFR-His [4] = target: T6, human EGFR-His (human, UniProt P00533 25-645); experiment: ELISA, coated EGFR-his, antibody 200 ng/mL
T6 construct: Bought protein

rat Her3-his = target: T1, rat Her3-his; experiment: ELISA, coated rat Her3-his, anti-human Fc-HRP
human Her2-His [5] = target: T7, human Her2-His (human, UniProt P04626 23-652); experiment: ELISA, coated human Her2-His
T7 construct: Bought protein

human Her3-his [6] = target: T4, human Her3-his; experiment: ELISA, coated human Her3-his, anti-human Fc-HRP
human Her4-His [7] = target: T2, human Her4-His; experiment: ELISA, coated Her4-his, antibody 200 ng/mL
human Her3-his [8] = target: T4, human Her3-his; experiment: ELISA, coated Her3-his, antibody 1000 ng/mL
human Her2-His [9] = target: T7, human Her2-His; experiment: ELISA, coated Her2-his, antibody 40 ng/mL
human EGFR-His [10] = target: T6, human EGFR-His; experiment: ELISA, coated human EGFR-His
human Her4-His [11] = target: T2, human Her4-His; experiment: ELISA, coated Her4-his, antibody 1000 ng/mL
monkey Her3-his = target: T3, monkey Her3-his; experiment: ELISA, coated monkey Her3-his, anti-human Fc-HRP
human Her4-His [12] = target: T2, human Her4-His; experiment: ELISA, coated human Her4-His
human Her2-His [13] = target: T7, human Her2-His; experiment: ELISA, coated Her2-his, antibody 1000 ng/mL
human Her3-his [14] = target: T4, human Her3-his; experiment: BLI (Fortibio), antibody on ProteinA sensor, human Her3-His in solution, 1:1 model
human EGFR-His [15] = target: T6, human EGFR-His; experiment: ELISA, coated EGFR-his, antibody 40 ng/mL
human Her2-His [16] = target: T7, human Her2-His; experiment: ELISA, coated Her2-his, antibody 200 ng/mL
human EGFR-His [17] = target: T6, human EGFR-His; experiment: ELISA, coated EGFR-his, antibody 1000 ng/mL
human Her4-His [18] = target: T2, human Her4-His; experiment: ELISA, coated Her4-his, antibody 40 ng/mL
[19] = target: T5, human Her3 on tumor cells; experiment: cell-based or functional assay
[20] = target: T5, human Her3 on tumor cells; experiment: flow cytometry, T47D tumor cells

| Binder | OD450 (human Her3-his [1]) | OD450 (human Her3-his [2]) | EC50 [3] | Maximum MFI [3] | OD450 (human EGFR-His [4]) | binding result (human Her2-His [5]) | EC50 (human Her3-his [6]) | OD450 (human Her4-His [7]) | OD450 (human Her3-his [8]) | OD450 (human Her2-His [9]) | binding result (human EGFR-His [10]) | OD450 (human Her4-His [11]) | EC50 (monkey Her3-his) | binding result (human Her4-His [12]) | OD450 (human Her2-His [13]) | Kd (human Her3-his [14]) | koff (human Her3-his [14]) | kon (human Her3-his [14]) | OD450 (human EGFR-His [15]) | OD450 (human Her2-His [16]) | also measured |
| --- | --- | --- | --- | --- | --- | --- | --- | --- | --- | --- | --- | --- | --- | --- | --- | --- | --- | --- | --- | --- | --- |
| B1 | 0.281 | 0.344 | 2.04 nM | 55700 MFI | 0.05 | no binding (tested: 1 µg/mL, 200 ng/mL, and 40 ng/mL) | 0.0606 nM | 0.051 | 0.333 | 0.052 | no binding (tested: 1 µg/mL, 200 ng/mL, and 40 ng/mL) | 0.05 | 0.0396 nM | no binding (tested: 1 µg/mL, 200 ng/mL, and 40 ng/mL) | 0.048 | 7.79 nM | 0.00142 s⁻¹ | 182000 M⁻¹ s⁻¹ | 0.055 | 0.049 | EC50 (rat Her3-his): 0.154 nM; OD450 (human EGFR-His [17]): 0.05; OD450 (human Her4-His [18]): 0.049; IC50 of inhibition of NRG1-induced AKT phosphorylation in MCF-7 cells (cell blotting, anti-Phospho Akt Ser473) [19]: 1.04 nM |
| B2 | 0.306 | 0.407 | 2.59 nM | 54800 MFI | 0.05 | no binding (tested: 1 µg/mL, 200 ng/mL, and 40 ng/mL) | 0.0782 nM | 0.051 | 0.427 | 0.05 | no binding (tested: 1 µg/mL, 200 ng/mL, and 40 ng/mL) | 0.05 | 0.0439 nM | no binding (tested: 1 µg/mL, 200 ng/mL, and 40 ng/mL) | 0.05 | 6.81 nM | 0.00124 s⁻¹ | 182000 M⁻¹ s⁻¹ | 0.051 | 0.051 | EC50 (rat Her3-his): 0.225 nM; OD450 (human EGFR-His [17]): 0.051; OD450 (human Her4-His [18]): 0.051 |
| B3 | 0.573 | 0.695 | 1.15 nM | 63800 MFI | 0.051 | no binding (tested: 1 µg/mL, 200 ng/mL, and 40 ng/mL) | 0.021 nM | 0.051 | 0.61 | 0.049 | no binding (tested: 1 µg/mL, 200 ng/mL, and 40 ng/mL) | 0.051 | 0.0159 nM | no binding (tested: 1 µg/mL, 200 ng/mL, and 40 ng/mL) | 0.049 | 13.1 nM | 0.00218 s⁻¹ | 167000 M⁻¹ s⁻¹ | 0.051 | 0.05 | EC50 [20]: 0.08 nM; OD450 (human EGFR-His [17]): 0.051; OD450 (human Her4-His [18]): 0.05; IC50 of inhibition of NRG1-induced AKT phosphorylation in MCF-7 cells (cell blotting, anti-Phospho Akt Ser473) [19]: 0.243 nM |
